Laboratory results reported in IntAct's records for PubMed 20562859.

B1: Gamma-aminobutyric acid receptor-associated protein (Homo sapiens), O95166 (parent)
chain: MKFVYKEEHPFEKRRSEGEKIRKKYPDRVPVIVEKAPKARIGDLDKKKYLVPSDLTVGQFYFLIRKRIHLRAEDALFFFVNNVIPPTSATMGQLYQEHHEEDFFLYIAYSDESVYGL
partner: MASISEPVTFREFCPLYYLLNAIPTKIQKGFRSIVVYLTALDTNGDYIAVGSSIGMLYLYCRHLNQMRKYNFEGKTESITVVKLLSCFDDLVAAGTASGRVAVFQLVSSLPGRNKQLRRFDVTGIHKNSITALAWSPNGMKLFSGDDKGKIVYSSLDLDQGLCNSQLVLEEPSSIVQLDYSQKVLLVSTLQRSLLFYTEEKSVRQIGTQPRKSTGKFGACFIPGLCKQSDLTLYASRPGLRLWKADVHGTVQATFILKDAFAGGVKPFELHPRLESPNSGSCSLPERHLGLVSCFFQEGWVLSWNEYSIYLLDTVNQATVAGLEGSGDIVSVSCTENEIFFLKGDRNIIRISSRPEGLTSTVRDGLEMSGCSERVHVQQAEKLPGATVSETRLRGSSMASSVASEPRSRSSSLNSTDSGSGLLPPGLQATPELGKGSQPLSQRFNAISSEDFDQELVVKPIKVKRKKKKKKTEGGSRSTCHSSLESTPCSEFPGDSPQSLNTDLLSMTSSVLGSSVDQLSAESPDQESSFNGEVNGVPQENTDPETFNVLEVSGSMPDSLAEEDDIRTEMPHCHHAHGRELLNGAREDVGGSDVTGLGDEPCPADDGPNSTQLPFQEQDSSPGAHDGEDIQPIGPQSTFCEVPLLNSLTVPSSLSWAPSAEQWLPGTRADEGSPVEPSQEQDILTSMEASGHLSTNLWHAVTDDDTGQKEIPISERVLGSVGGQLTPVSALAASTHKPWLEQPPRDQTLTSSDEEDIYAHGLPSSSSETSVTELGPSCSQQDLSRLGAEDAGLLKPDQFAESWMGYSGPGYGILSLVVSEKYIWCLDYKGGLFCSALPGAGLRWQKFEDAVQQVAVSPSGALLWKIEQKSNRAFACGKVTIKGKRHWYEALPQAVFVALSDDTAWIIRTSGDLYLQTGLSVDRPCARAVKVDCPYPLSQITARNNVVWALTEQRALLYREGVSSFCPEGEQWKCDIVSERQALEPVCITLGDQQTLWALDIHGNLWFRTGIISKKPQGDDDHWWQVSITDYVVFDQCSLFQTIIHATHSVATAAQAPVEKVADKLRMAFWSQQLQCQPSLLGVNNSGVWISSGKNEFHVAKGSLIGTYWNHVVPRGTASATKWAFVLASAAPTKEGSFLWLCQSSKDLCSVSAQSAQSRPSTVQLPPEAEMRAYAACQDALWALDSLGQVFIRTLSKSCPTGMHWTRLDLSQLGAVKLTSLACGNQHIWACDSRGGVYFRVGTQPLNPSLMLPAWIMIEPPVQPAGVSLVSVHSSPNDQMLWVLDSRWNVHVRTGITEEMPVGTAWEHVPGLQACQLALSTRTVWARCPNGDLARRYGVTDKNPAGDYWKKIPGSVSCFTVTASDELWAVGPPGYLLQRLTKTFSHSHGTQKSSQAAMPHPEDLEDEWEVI
B2: Gamma-aminobutyric acid receptor-associated protein (Homo sapiens), O95166 (parent)
chain: B1 chain
partner: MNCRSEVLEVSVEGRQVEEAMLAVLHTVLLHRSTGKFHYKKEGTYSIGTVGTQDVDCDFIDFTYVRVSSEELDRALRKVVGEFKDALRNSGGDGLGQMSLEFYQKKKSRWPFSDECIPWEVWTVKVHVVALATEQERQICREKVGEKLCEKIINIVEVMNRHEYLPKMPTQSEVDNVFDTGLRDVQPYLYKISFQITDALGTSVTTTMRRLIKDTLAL
B3: Gamma-aminobutyric acid receptor-associated protein (Homo sapiens), O95166 (parent)
chain: B1 chain
partner: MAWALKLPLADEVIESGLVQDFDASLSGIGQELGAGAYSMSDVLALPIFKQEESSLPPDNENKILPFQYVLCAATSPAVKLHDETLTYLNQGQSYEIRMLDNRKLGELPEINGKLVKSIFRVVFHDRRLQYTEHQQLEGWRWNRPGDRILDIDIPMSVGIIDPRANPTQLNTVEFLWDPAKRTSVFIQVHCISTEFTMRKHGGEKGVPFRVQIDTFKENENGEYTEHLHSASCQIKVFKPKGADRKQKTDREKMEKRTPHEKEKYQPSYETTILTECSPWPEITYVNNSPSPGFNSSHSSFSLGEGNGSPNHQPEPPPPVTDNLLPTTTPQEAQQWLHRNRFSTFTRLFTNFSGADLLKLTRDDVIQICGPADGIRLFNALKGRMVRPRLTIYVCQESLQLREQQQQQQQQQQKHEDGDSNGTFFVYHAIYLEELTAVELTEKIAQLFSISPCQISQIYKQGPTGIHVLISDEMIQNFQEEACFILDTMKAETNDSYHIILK
B4: Gamma-aminobutyric acid receptor-associated protein (Homo sapiens), O95166 (parent)
chain: B1 chain
partner: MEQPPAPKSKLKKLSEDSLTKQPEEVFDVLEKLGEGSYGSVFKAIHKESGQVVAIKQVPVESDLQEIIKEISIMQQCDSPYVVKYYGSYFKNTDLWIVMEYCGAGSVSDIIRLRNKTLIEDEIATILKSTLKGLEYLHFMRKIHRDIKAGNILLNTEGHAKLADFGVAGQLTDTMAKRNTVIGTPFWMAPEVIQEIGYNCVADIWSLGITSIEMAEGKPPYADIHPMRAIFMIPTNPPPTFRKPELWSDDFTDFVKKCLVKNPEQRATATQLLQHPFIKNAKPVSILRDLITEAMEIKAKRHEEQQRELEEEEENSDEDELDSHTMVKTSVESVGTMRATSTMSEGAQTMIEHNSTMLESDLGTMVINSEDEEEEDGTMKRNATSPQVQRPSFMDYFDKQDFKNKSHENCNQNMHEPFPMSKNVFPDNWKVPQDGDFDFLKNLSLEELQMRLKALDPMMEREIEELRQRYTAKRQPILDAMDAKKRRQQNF
B5: Gamma-aminobutyric acid receptor-associated protein (Homo sapiens), O95166 (parent)
chain: B1 chain
partner: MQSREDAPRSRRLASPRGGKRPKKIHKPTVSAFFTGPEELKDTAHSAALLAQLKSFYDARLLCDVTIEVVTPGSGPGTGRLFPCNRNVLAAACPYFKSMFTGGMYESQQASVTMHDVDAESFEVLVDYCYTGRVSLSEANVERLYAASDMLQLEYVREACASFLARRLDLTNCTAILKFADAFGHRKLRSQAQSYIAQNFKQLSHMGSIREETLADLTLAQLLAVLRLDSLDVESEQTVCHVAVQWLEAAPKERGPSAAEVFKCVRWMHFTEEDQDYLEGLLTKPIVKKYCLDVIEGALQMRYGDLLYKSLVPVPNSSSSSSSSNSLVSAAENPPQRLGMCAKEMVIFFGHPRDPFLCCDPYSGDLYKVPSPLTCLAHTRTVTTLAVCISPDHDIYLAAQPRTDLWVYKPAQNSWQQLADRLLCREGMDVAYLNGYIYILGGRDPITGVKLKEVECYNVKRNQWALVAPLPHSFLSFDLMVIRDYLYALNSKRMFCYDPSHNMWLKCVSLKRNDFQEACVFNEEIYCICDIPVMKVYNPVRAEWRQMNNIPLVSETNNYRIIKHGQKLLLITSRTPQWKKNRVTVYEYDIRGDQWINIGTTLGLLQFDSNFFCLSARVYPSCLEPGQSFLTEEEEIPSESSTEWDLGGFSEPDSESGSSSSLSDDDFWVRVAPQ
B6: Gamma-aminobutyric acid receptor-associated protein (Homo sapiens), O95166 (parent)
chain: B1 chain
partner: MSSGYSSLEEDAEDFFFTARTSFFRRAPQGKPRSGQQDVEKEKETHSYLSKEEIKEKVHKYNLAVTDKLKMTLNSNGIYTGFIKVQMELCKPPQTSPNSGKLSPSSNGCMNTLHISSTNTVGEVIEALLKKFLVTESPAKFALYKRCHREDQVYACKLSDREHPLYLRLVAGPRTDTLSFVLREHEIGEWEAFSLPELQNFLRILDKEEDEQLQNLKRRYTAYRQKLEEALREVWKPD
B7: Gamma-aminobutyric acid receptor-associated protein (Homo sapiens), O95166 (parent)
chain: B1 chain
partner: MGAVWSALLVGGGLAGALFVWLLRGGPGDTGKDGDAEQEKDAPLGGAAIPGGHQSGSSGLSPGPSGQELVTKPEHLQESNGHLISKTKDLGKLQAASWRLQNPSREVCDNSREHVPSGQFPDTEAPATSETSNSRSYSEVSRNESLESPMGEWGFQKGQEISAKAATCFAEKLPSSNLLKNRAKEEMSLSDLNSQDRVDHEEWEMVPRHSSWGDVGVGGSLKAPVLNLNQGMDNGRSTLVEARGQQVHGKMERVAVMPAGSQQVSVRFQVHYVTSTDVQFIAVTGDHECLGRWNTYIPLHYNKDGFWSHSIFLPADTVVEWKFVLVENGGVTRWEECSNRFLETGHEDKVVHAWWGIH
B8: Gamma-aminobutyric acid receptor-associated protein (Homo sapiens), O95166 (parent)
chain: B1 chain
partner: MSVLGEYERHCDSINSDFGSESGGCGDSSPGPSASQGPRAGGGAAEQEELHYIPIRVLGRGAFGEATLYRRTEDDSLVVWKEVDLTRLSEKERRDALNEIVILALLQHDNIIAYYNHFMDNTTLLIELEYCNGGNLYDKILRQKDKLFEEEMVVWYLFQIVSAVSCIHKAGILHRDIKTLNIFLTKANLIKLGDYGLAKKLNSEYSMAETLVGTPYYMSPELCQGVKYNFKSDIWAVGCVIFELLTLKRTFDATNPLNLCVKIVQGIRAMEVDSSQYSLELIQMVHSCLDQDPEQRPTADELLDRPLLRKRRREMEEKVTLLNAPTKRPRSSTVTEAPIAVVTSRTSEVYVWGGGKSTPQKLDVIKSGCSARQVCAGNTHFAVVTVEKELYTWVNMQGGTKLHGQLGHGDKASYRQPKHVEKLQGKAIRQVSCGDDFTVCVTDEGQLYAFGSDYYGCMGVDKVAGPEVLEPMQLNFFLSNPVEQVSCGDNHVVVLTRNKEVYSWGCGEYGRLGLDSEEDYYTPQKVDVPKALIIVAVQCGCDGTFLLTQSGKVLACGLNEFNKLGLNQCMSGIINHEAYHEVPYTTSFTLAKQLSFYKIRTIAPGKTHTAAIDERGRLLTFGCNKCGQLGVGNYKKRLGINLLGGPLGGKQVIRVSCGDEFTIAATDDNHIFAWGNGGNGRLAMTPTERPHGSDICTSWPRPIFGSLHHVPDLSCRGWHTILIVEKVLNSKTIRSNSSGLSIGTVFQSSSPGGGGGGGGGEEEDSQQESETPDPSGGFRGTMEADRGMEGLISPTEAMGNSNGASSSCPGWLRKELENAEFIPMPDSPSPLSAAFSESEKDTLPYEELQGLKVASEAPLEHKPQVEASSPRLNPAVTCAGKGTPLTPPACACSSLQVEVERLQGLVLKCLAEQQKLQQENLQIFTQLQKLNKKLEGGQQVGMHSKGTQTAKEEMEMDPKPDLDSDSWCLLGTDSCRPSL
B9: Gamma-aminobutyric acid receptor-associated protein (Homo sapiens), O95166 (parent)
chain: B1 chain
partner: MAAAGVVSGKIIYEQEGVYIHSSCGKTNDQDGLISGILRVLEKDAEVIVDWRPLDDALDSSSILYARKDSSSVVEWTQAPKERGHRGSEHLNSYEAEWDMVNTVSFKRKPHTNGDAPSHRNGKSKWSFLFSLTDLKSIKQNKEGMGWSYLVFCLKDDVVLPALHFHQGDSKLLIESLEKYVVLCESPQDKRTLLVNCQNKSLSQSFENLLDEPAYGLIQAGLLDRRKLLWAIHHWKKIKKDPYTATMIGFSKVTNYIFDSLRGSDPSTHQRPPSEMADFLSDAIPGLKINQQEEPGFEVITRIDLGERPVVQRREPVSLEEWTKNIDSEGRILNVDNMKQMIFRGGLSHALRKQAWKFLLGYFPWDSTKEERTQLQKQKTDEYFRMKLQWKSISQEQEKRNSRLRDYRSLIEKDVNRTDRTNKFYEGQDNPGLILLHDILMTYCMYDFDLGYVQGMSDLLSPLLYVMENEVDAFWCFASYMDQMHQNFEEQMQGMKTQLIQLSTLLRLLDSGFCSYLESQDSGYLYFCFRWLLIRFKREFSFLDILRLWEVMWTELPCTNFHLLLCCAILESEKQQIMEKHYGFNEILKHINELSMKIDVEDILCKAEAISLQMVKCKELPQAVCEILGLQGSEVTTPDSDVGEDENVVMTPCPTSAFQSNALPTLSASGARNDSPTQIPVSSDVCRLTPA
B10: Gamma-aminobutyric acid receptor-associated protein (Homo sapiens), O95166 (parent)
chain: B1 chain
partner: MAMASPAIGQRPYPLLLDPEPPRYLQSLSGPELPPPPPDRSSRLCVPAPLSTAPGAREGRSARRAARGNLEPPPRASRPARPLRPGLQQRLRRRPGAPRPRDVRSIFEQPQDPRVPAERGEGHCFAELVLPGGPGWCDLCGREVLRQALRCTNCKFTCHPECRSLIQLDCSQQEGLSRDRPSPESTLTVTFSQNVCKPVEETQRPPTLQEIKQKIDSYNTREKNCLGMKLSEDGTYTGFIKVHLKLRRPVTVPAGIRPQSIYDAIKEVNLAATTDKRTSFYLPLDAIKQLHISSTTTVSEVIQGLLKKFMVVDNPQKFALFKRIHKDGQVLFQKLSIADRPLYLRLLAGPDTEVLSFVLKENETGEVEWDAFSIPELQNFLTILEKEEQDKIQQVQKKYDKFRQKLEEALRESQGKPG

Variants of: B1
Settings: with tcpr2_human TECPR2, O15040
For Y49A;L50A, the “effect of a mutation on the interaction” value was “decreasing interaction”.

Variants of: B2
Settings: with atga1_human ATG101, Q9BSB4
For R71A, the “effect of a mutation on the interaction” value was “increasing interaction”. With Y49A;L50A the “effect of a mutation on the interaction” value was “increasing interaction”.

Variants of: B3
Settings: with tfcp2_human TFCP2, Q12800
With Y49A;L50A the “effect of a mutation on the interaction” value was “decreasing interaction”. In the case of R71A, the “effect of a mutation on the interaction” value is reported as “increasing interaction”.

Variants of: B4
Settings: with stk3_human STK3, Q13188
With Y49A;L50A the “effect of a mutation on the interaction” value was “decreasing interaction”.

Variants of: B5
Settings: with kbtb6_human KBTBD6, Q86V97
For Y49A;L50A, the “effect of a mutation on the interaction” value was “decreasing interaction”.

Variants of: B6
Settings: with rasf3_human RASSF3, Q86WH2
For Y49A;L50A, the “effect of a mutation on the interaction” value was “decreasing interaction”.

Variants of: B7
Settings: with stbd1_human STBD1, O95210
Y49A;L50A was tested, and the “effect of a mutation on the interaction” value was “decreasing interaction”.

Variants of: B8
Settings: with nek9_human NEK9, Q8TD19
With Y49A;L50A the “effect of a mutation on the interaction” value was “decreasing interaction”.

Variants of: B9
Settings: with tbc15_human TBC1D15, Q8TC07
Y49A;L50A was tested, and the “effect of a mutation on the interaction” value was “disrupting interaction”.

Variants of: B10
Settings: with rasf5_human RASSF5, Q8WWW0
Y49A;L50A was tested, and the “effect of a mutation on the interaction” value was “increasing interaction”.
